Results from patent publication US20250302956A1.

Experiments:
Test in all cases: cell-based or functional assay
[1] = target: NY-ESO-1 peptide … (SEQ ID NO: 40) presented by HLA-A02 on T2 cells (human)
[2] = target: LLMWITQC (SEQ ID NO: 1) presented by HLA-A02 on T2 cells (human)
[3] = target: LAMWITQC (SEQ ID NO: 2) presented by HLA-A02 on T2 cells (human)

average log 2FC in PresentER library coculture screen, CD8-native 1G4-α95: TS cells (log2 fold change) [1]: -6.1 | average log 2FC in PresentER library coculture screen, CD8-native 1G4-α95: TS cells (log2 fold change) [2]: -5 | average log 2FC in PresentER library coculture screen, CD8-native 1G4-α95: TS cells (log2 fold change) [3]: -4
Substance: native 1G4-α95: TS TCR
